Here are results for one substance from patent publication US20200010513A1.

Bounds are passed on as bounds.

What all share (experiment): cell-based or functional assay
Assay [1] concerns the target TM-CIBN-TEV-N-TEVseq-tTA with intact TEVseq without a fusion to the AsLOV2 protein.
The target in assay [2] is TM-CIBN-NES-TEV-N-BLITz-6-tTA.
Assay [3] concerns the target TM-CIBN-NES-TEV-N-BLITz-1-tTA.

For the substance NES-CRY2PHR-TEV-C, the SEAP assay, fold change of gene expression by blue light (HEK293T cells) in assay [1] was found to be 1.4 fold. Moreover, the SEAP assay, fold gene expression by blue light (HEK293T cells) in assay [2] and in assay [3] was > 20 fold throughout.
